Results: US20150093336A1 (VIB VZW, published 2015)

T1: Recombinant human MMR (R&D systems) (human, UniProt P22897 19-1383)
T1 construct: Antigen of the PE-ELISA and the SPR; also called hMMR; recombinant hMMR
T1 sequence: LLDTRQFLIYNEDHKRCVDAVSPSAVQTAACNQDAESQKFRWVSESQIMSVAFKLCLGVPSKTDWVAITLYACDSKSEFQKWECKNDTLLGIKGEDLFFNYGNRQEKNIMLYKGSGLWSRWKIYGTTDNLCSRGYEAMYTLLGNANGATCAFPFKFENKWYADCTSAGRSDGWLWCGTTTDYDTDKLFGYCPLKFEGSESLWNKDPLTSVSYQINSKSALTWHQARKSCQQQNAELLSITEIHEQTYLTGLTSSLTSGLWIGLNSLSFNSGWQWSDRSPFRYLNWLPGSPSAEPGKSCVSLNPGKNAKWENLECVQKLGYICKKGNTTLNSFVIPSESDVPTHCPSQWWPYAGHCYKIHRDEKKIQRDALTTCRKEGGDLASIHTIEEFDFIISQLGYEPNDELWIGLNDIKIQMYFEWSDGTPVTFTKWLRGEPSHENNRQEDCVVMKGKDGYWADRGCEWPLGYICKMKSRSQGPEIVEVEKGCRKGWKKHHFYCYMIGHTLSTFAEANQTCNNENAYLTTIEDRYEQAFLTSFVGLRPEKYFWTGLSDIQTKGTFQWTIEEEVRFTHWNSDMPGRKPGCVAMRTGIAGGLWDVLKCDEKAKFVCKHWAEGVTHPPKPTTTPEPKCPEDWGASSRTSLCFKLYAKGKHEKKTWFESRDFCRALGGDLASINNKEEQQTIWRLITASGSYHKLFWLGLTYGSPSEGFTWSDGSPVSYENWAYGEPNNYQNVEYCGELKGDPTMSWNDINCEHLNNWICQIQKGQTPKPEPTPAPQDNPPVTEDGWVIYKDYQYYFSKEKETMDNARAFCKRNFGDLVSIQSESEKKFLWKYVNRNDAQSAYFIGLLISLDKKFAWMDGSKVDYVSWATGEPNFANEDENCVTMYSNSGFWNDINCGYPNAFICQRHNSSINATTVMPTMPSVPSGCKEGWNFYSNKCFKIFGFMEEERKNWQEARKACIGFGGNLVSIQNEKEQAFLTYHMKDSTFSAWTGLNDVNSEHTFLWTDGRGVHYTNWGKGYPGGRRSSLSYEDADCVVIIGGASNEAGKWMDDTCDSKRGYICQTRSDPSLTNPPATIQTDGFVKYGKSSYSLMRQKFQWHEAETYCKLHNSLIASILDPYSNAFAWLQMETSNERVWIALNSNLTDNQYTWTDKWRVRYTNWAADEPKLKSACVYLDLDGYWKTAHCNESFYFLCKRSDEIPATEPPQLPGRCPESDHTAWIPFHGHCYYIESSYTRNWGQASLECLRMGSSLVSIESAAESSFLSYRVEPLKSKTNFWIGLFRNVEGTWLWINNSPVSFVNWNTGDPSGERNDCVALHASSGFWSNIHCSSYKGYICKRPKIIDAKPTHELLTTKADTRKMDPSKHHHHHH

T2: Mouse macrophage mannose receptor (MMR) expressed on tumor-associated macrophages of 3LL-R tumors (mouse, UniProt Q61830 20-1456)
T2 construct: Endogenous receptor on ex vivo isolated CD11b+ Ly6G- TAMs (flow cytometry) and in mouse organs (biodistribution); also called mouse MMR; mMMR
T2 sequence: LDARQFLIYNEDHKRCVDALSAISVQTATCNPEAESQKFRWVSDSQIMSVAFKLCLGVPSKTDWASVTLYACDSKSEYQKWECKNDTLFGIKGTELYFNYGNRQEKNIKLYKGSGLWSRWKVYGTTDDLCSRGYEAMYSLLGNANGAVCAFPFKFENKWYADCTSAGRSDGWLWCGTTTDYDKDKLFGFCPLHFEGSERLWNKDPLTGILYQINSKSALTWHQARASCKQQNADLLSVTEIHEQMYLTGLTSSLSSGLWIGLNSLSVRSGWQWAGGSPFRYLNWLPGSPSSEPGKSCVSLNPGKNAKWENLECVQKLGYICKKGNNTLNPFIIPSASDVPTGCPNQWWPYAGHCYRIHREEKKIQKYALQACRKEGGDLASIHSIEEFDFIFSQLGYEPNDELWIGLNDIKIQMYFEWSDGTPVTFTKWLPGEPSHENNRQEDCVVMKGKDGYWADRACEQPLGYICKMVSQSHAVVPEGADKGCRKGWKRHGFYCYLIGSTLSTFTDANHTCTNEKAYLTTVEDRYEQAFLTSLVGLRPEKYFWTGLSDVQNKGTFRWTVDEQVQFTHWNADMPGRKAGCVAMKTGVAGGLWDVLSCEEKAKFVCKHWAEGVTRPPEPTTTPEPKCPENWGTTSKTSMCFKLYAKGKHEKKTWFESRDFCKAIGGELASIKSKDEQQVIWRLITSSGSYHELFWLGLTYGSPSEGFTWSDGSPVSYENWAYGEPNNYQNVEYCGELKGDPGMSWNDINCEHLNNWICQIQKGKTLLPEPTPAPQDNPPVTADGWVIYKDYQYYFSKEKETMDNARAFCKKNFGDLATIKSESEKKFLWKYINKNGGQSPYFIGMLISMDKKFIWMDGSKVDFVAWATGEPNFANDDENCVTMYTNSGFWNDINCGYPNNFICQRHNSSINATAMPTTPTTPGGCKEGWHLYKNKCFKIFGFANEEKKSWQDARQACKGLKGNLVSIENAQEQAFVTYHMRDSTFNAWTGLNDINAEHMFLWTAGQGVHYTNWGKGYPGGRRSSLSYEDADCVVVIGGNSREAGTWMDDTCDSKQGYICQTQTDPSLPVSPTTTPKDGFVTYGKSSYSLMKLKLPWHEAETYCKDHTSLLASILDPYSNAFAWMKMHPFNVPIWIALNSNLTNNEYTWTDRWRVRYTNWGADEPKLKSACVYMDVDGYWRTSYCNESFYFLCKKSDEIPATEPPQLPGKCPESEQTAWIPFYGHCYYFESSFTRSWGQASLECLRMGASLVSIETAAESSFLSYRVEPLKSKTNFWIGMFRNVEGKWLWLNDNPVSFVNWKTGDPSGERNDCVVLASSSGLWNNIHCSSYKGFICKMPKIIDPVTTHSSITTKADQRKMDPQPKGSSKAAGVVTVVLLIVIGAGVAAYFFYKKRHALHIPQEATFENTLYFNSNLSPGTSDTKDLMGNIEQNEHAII


Tests used:
[1] = biological target: T1, Recombinant human MMR (R&D systems); assay: PE-ELISA, periplasmic extract on coated human MMR, anti-HA detection
[2] = biological target: T2, Mouse macrophage mannose receptor (MMR) …; assay: flow cytometry on CD11b+ Ly6G- TAMs of 3LL-R tumors gated on MHCII, HA-tagged Nb detected with Alexa Fluor 488 anti-HA
Method: FIG. 6: MMR-specific Nbs bind to mouse MMR expressed on ex vivo isolated macrophages. 3LL-R tumors were induced by injecting 3×10⁶ cancer cells subcutaneously in C57Bl/6 mice. After 15 days of tumor growth, the tumors were isolated and single cell suspensions were prepared to be analyzed by flow cytometry. The CD11b+Ly6G tumor-associated macrophages (TAM) were further gated on MHCII expression. The histograms depict MMR expression as defined by Nb binding on MHCII^low and MHCII^high TAMs. Shaded histograms depict binding of the negative control Nb BCII10.
For examining specific binding of the anti-MMR sdAbs to mouse MMR, 3LL-R tumors were induced by injecting 3 E6 cancer cells subcutaneously in C57Bl/6 mice. After 15 days of tumor growth, the tumors were isolated, chopped and incubated for 25 minutes (37° C.) with 10 U/ml Collagenase type I, 400 U/ml Collagenase type IV, and 30 U/ml DNAseI (Worthington). Density gradients (Axis-Shield) were used to remove tissue debris and dead cells. sdAbs were added at 10 μg/ml to 1 E6 cells per tube. […] Binding profiles of anti-MMR sdAbs were recorded.

| binding result [1] | binding result [2] | Binder |
| --- | --- | --- |
| binds | – | NbhMMRm4.83 (VHH, Only tested as periplasmic extract in PE-ELISA; clone carries C-terminal HA and 6xHis tag) VHH: QVQLQESGGGLVQPGGSLRLSCAASGPGFKLDYYAIAWFRQAPGKEREGVSCIGGSGSGLTTYVENSVKDRFTISRDNAQNTVYLHMNSLKPEDTGIYYCAADTYYYCSKRVWRNDYGSWGQGTQVTVSS |
| – | binds | anti-mouse MMR sdAb clone 1 (VHH, also called anti-mMMR Nb clone 1; anti-mouse MMR clone 1) VHH: QVQLQESGGGLVQPGGSLRLSCAASGNIFSINAIGWYRQAPGKQRELVATITLSGSTNYADSVKGRFSISRDNAKNTVYLQMNSLKPEDTAVYYCNANTYSDSDVYGYWGQGTQVTVSS |
